T1: MARV Ci67 GPe (Marburg virus, Ci67 strain, UniProt P35254 19-637)
T1 sequence: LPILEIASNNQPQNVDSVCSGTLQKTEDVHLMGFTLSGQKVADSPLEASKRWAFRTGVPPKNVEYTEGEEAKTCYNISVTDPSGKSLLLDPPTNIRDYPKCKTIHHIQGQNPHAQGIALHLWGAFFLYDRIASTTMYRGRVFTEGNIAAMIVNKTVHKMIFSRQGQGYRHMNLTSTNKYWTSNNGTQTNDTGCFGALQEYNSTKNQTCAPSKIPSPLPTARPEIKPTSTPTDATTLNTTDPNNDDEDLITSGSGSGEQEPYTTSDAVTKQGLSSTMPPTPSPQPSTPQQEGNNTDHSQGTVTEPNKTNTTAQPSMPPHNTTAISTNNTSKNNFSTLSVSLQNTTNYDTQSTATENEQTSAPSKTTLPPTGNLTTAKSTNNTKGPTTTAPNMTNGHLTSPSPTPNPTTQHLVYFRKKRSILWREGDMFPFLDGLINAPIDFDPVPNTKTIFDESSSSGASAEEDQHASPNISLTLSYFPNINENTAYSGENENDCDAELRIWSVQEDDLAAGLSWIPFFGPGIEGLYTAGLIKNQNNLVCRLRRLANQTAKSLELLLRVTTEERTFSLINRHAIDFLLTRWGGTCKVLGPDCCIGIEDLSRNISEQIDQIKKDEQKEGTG

T2: MARV Musoke GPe (Marburg virus, Musoke strain, UniProt P35253 19-637)
T2 sequence: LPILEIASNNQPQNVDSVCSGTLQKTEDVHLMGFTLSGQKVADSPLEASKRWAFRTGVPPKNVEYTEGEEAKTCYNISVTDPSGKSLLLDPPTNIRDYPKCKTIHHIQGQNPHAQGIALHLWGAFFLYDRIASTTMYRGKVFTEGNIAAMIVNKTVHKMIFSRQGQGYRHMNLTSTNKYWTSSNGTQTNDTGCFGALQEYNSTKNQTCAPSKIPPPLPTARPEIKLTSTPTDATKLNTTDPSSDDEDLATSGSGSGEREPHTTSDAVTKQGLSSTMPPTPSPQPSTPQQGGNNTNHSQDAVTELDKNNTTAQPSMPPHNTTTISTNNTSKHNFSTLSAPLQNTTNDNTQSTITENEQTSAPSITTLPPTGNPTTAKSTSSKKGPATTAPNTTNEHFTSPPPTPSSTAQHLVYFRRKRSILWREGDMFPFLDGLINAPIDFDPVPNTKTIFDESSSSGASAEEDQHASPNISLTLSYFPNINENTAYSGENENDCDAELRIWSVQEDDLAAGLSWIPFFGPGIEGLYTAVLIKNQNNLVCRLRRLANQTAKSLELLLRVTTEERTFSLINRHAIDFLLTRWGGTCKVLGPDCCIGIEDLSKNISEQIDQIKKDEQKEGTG

T3: MARV Angola GPe (Marburg virus, Angola strain, UniProt Q1PD50 19-637)
T3 sequence: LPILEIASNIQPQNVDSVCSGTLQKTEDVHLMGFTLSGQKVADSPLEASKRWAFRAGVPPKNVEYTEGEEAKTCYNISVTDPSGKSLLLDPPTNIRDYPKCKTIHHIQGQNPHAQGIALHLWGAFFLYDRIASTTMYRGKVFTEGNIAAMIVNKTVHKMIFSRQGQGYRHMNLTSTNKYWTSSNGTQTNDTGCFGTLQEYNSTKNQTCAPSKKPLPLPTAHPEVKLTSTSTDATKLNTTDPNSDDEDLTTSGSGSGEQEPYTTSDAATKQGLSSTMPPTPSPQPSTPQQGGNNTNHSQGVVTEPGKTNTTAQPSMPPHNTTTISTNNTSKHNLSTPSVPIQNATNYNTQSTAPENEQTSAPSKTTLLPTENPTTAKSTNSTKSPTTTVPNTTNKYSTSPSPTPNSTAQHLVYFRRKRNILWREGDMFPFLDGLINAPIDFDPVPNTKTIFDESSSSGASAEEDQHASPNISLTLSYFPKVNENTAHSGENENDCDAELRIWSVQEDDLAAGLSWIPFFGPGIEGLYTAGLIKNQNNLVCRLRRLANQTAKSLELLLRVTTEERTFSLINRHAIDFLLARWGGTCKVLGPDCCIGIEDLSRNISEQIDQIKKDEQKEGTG


Key:
MARV Ci67 GPe = target: T1, MARV Ci67 GPe; assay: ELISA on coated antigen (FIG. 2)
MARV Musoke GPe = target: T2, MARV Musoke GPe; assay: ELISA on coated antigen (FIG. 2)
MARV Angola GPe = target: T3, MARV Angola GPe; assay: ELISA on coated antigen (FIG. 2)
Marburg virus GP (Ravn) [1] = target: T4, Marburg virus GP (Ravn) (Marburg virus, Ravn strain, UniProt Q1PDC7 19-681); assay: cell-based or functional assay
Marburg virus GP (Ravn) [2] = target: T4, Marburg virus GP (Ravn); assay: cell-based or functional assay; remark: listed apart in the source

Row | Binder | binding result (MARV Ci67 GPe) | binding result (MARV Musoke GPe) | binding result (MARV Angola GPe) | VSVdG/GP Neutralization (Marburg virus GP (Ravn) [1]) [%] | neutralization of mucin containing (full length) MARV GP-pseudotyped VSV (Marburg virus GP (Ravn) [2]) [%]
1 | CAN30G5 (antibody, V domains shown) VH: EVQLVESGGGLVQPKGSLKLSCAASGFAFNSYAMHWVCQAPGKGLEWVARIRIKSGNYATSYAGSVTDRFTVSRDDSQNLFYLQMNNLKTEDTAMYYCVREWEGAMDYWGQGTSVTVSS VL: DIVLTQSPLSLPVSLGDQASISCRSSQSLVHSNGNTYLHWYLQKPGQSPNLLIYKVSNRFSGVPDRFSGSGSGTDFTLKISRVEAEDLGVYFCSQSTHVPWTFGGGTKLEIK | no binding | no binding | no binding | 50 | ~50
2 | CAN40G1 (antibody, V domains shown) VH: EVQLQQSGPELVKPGASVKISCRTSGYTFTEYTIHWVKQSRGKSLEWIGGINPNHGGTLYNQKFKVKATLTVDKSSSTAYMELRSLTSEDSAVYYCARFTYDYWGQGTTLTVSS VL: DIVLTQSPASLAVSLGQRASISCKASQSVDHDGDSYMNWYQQKPGQPPKLLIYATSNLESGIPARFSGSGSGTDFTLNIHPVEEEDAATYYCQQSYEVPLTFGAGTKLELK | binds | binds | binds | 0 | –
3 | CAN30G3 (antibody, V domains shown) VH: QVQLKESGPGLVAPSQSLSITCTVSGFSLTDYGITWIRQPPGKGLEWLGVIWGGGSAYYNLVLKSRLSISKDNSKSQVFLKMNSLQTDDTAMYYCAKHRTLITTAMDYWGQGISVTVSS VL: DVLMTQTPLSLPVSLGDQASISCRSSQNIVHSNGNTYLEWYLQKSGQSPKLLIYKVSNRFSGVPDRFSGSGSGTDFTLKISRVEAEDLGVYYCFQGSHFPWTFGGGTKLEIK | no binding | no binding | no binding | 40 | ~50
4 | CAN30G4 (antibody, V domains shown) VH: EVKLVESGGGLVKSGGSLKLSCAVSGFTFSTYAMSWVRQIPEKRLEWVATISNGGSYIYYSDSVKGRFTISRDNAKNTLYLQMSSLRSEDTAMYYCARHRESYRYDWFAYWGQGTLVTVSA VL: DVLMTQTPLSLPVSLGDQASISCRSSQNIVHSDGNTYLEWYLQKPGQSPKLLIYKFSNRFSGVPDRFSGSGSGTDFTLKISRVEAEDLGVYYCFQGSHVPPTFGAGTKLELK | binds | binds | binds | 50 | –
5 | CAN54G2 (antibody, V domains shown) VH: QVQLQQSGTELVRPGTSVKISCKASGYDFTNFWLGWIKQRPGHGLEWIGDIYPGGDNTYYNEKFKGKVTLTADKSSNTAYMQFSSLTSEDSAVYFCFMILYTLDYWGQGTSVTVSS VL: not shown | no binding | no binding | no binding | 40 | ~50
6 | CAN30G1 (antibody, V domains shown) VH: QIQLVQSGPELKKPGETVKISCKASGYTFTNYGMNWVKQAPGKGLKWMGWINTYTGKPTYVDDFKGRFAFSLETSANTAYLQINNLKNEDTATYFCESGGYDEDYWGQGTTLTVSS VL: ENVLTQSPAIMSASPGEKVTMTCSASSSVTYMHWYQQKSSTSPKLWIYDTSKLASGVPGRFSGSGSGNSYSLTISSMEAEDVATYYCFQGSGYPYTFGGGTKLEIK | binds | binds | binds | 5 | –

Reference: patent US20170065702A1 (CANGENE, published 2017)
